Data published in publication doi:10.1101/2023.01.27.525886 (bioRxiv, 2023).

T1: Vtc3-TAPm (S. cerevisiae, UniProt Q02725 1-835)
T1 sequence: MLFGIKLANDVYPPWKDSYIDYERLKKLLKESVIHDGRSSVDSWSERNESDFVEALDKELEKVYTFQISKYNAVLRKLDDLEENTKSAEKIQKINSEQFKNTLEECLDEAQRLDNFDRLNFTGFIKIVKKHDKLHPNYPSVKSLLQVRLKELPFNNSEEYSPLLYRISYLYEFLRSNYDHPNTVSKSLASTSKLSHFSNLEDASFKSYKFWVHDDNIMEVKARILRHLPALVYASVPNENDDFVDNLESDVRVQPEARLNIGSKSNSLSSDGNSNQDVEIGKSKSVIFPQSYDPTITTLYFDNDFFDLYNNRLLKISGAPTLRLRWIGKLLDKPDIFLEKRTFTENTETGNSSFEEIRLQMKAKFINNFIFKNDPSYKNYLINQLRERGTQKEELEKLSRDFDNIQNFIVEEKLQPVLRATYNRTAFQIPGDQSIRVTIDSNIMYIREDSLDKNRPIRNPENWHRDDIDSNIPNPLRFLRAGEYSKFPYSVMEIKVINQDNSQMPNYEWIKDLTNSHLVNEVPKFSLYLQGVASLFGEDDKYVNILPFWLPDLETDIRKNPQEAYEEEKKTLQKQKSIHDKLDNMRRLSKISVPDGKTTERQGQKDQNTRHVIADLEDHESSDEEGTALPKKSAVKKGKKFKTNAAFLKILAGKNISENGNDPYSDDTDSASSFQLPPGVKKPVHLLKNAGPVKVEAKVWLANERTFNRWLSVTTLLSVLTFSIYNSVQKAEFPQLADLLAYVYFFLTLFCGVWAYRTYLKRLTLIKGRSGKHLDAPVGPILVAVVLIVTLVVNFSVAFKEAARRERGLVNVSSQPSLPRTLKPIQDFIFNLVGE

B1: Vtc1 (natural protein)
chain: MSSAPLLQRTPGKKIALPTRVEPKVFFANERTFLSWLNFTVMLGGLGVGLLNFGDKIGRVSAGLFTFVAMGTMIYALVTYHWRAAAIRRRGSGPYDDRLGPTLLCFFLLVAVIINFILRLKYNDANTKL
B2: Vtc4 (natural protein)
chain: MKFGEHLSKSLIRQYSYYYISYDDLKTELEDNLSKNNGQWTQELETDFLESLEIELDKVYTFCKVKHSEVFRRVKEVQEQVQHTVRLLDSNNPPTQLDFEILEEELSDIIADVHDLAKFSRLNYTGFQKIIKKHDKKTGFILKPVFQVRLDSKPFFKENYDELVVKISQLYDIARTSGRPIKGDSSAGGKQQNFVRQTTKYWVHPDNITELKLIILKHLPVLVFNTNKEFEREDSAITSIYFDNENLDLYYGRLRKDEGAEAHRLRWYGGMSTDTIFVERKTHREDWTGEKSVKARFALKERHVNDFLKGKYTVDQVFAKMRKEGKKPMNEIENLEALASEIQYVMLKKKLRPVVRSFYNRTAFQLPGDARVRISLDTELTMVREDNFDGVDRTHKNWRRTDIGVDWPFKQLDDKDICRFPYAVLEVKLQTQLGQEPPEWVRELVGSHLVEPVPKFSKFIHGVATLLNDKVDSIPFWLPQMDVDIRKPPLPTNIEITRPGRSDNEDNDFDEDDEDDAALVAAMTNAPGNSLDIEESVGYGATSAPTSNTNHVVESANAAYYQRKIRNAENPISKKYYEIVAFFDHYFNGDQISKIPKGTTFDTQIRAPPGKTICVPVRVEPKVYFATERTYLSWLSISILLGGVSTTLLTYGSPTAMIGSIGFFITSLAVLIRTVMVYAKRVVNIRLKRAVDYEDKIGPGMVSVFLILSILFSFFCNLVAK

Experiments:
Vtc4 = molecular target: B2; assay: cryo-EM structure
cryo-EM structure = molecular target: the molecule itself; assay: cryo-EM structure
Vtc3-TAPm [1] = molecular target: T1, Vtc3-TAPm; assay: affinity co-purification of the endogenous complex
Vtc3-TAPm [2] = molecular target: T1, Vtc3-TAPm; assay: cryo-EM structure

| Binder | stoichiometry N (Vtc4) | binding result (cryo-EM structure) | binding result (Vtc3-TAPm [1]) | stoichiometry N (Vtc3-TAPm [2]) |
| --- | --- | --- | --- | --- |
| B1 | 3 Vtc1 per Vtc4 | binds | binds | – |
| B2 | – | – | – | 1 Vtc4 per Vtc3 |
